The target of assay [1] is T1, recombinant canine OX40L ECD-TNCc-HIS protein (canine).
T1 construct: also called Trimeric OX40L probe (HIS tag); trimeric canine OX40L
T1 chain: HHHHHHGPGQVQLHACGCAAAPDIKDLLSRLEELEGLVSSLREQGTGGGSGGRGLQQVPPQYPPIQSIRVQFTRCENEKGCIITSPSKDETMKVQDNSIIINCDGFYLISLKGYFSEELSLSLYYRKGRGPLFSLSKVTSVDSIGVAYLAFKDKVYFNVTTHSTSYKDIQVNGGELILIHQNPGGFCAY
The assay can be described thus: SPR Koff (kd1). How it is done:
(§1) Affinity (Kd) of OX40L antibodies is measured by SPR, using a recombinant canine OX40L ECD-TNCc-HIS protein (Seq ID 811) as the capturing agent (FIG. 5B).
(§2) Functional affinity is determined using a Biakore 8K (Cytiva). in brief, purified OX40L ECD-TNCc-HIS protein is covalently bound at low density to the surface of a CM5 sensor chip (Cytiva) by amine coupling, using the manufacturer's recommended protocol. Candidate antibodies are subsequently passed across the chip surface at a range of concentrations and affinity determined using the dedicated software (Biacore Insight Evaluation Software). Curves were fitted using a bivalent analyte binding model.

For assay [2], the target named is T1, recombinant canine OX40L ECD-TNCc-HIS …. The assay can be described thus: SPR Koff (kd2). On the procedure: as §1, §2
Assay [3] concerns the target T2, canine OX40L, full length membrane form, expressed on HEK293 cells (canine).
T2 chain: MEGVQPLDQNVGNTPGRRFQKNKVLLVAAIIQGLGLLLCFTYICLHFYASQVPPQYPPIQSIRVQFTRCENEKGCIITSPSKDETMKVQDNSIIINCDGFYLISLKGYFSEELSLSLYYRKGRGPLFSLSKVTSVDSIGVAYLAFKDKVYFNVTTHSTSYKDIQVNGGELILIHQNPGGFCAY
The assay can be described thus: cell-based or functional assay.

Assay [4] deals with T1, recombinant canine OX40L ECD-TNCc-HIS …. The experiment in a line: SPR KD1, bivalent analyte model. How it is done:
as §1, §2

Assay [5] concerns the target T2, canine OX40L, full length membrane …. The assay can be described thus: flow cytometry. On the procedure:
(§3) CHO supernatants diluted in FACS buffer (PBS containing 3% FBS) at 1, 5 or 10 μg/ml were used to screen for their binding capacity to canine OX40L using a cell-based assay. In brief, HEK293 or MEF cells (or any other commonly used cell lines) expressing canine OX40L at the cell surface are incubated with 100 μll of FACS buffer containing the candidate antibody for 30′ on ice. Cells are washed with 150 μl FACS buffer followed by centrifugation at 300 g for 3 min. The cell pellet is resuspended in FACS buffer containing a 1:1000 dilution of a fluorescently labelled secondary antibody recognising the canine Fc region of the test antibody for 30 min in the dark, followed by washing with 150 μl FACS buffer. Cells are resuspended in FACS buffer and flow cytometry performed using either a […] cytometer, followed by data analysis using FlowJo (FIG. 6 and Table 4).
Background: In flow cytometry, cells or beads pass a laser one at a time.

The target is the same in assay [6]. The experiment in a line: flow cytometry, OX40L HEK minus WT HEK. On the procedure: as §3

Positions count from the first letter of the chain named.

The values that follow come from patent publication US20250340659A1 (PETMEDIX, published 2025).

B1: PMX097 (antibody, V domains shown)
VH: EVQLVESGGDLVRPGGSLRLSCVASGITFSSYHMSWVRQAPGKGLQWVALINSGGSSITYADVVRGRFTISRDYAKNTLYLQMNSLRAEDTAVYYCASGSIWTHFDYWGQGTRVTVSS
VL: SFVLTQLPSVSVTLRQTARITCGGDIIGSKNVYWYQQRLGQAPVLIIYRDSNRPTGIPERFSGASSGNTATLTISGALAEDEADYYCQVWDNSNKAMFGGGTHLTVL
notes: also called PMX97
The term koff denotes the rate constant with which the complex falls apart. Consider B1, for which the koff in assay [1] amounted to 7.16e-05 s⁻¹. Also, the dissociation rate constant (koff) in assay [2] was found to be 0.744 s⁻¹. For the same molecule, in assay [3], the “% Signal Inhibition Average” value was determined as 60.8%, the “% Signal Inhibition Rep1” value is 56.1%, the “% Signal Inhibition Rep2” value was 73.1% and the “% Signal Inhibition Rep3” value turned out to be 53.2%. The Kd in assay [4] was found to be 0.492 nM.

B2: PMX104 (antibody, V domains shown)
VH: B1 VH with I27F, S31N, L50F, S56T, I58T, V63A, I70T, A97T, R113L
VL: B1 VL with N31S, Y35F, R38K, V44I, S51D, T73I, D84H, N92S, N94S
Consider B2, for which, in assay [1], the koff was 0.00174 s⁻¹. The off-rate constant (koff) in assay [2] was 1.23 s⁻¹. Further, in assay [3], the “% Signal Inhibition Average” value is 31%, the “% Signal Inhibition Rep1” value turned out to be 31%, the “% Signal Inhibition Rep2” value was found to be 28.1% and the “% Signal Inhibition Rep3” value came out at 33.9%. In addition, the Kd in assay [4] turned out to be 17.6 nM.

B3: PMX025 (antibody, V domains shown)
VH: EVHLVESGGDLVKPGGSLRLSCVASGFTFSSYHMSWVRQAPGKGLQWVAFINAGEISTNYADAVKGRFTISRDNAKNILYLQMNSLRAEDTAVYYCASGHIWIRPFDYWGQGTLVTVSS
VL: SYVLTQLPSMSVTLRQTARITCEGDSIGRKRVNWYQQKLGQVPVLIIYDDDSRPSGIPERFSGANSGNTATLTISGALAEDEAEYYCQVWDSSNNWVFGEGTQLTVL
notes: also called PMX25
Regarding B3, in assay [5], the “GEO mean OX40L expressing HEK” value was 2.83e+06. The off-rate constant (koff) in assay [1] amounted to 0.0129 s⁻¹. For the same molecule, the koff in assay [2] came out at 0.00169 s⁻¹. Besides, in assay [3], the “% Signal Inhibition Average” value stood at 72.6%, the “% Signal Inhibition Rep1” value worked out at 87.9%, the “% Signal Inhibition Rep2” value came out at 61.7% and the “% Signal Inhibition Rep3” value came to 68.3%. For the same molecule, in assay [4], the Kd worked out at 195 nM. Further, the GEO mean difference in assay [6] is 2.81e+06.

B4: PMX027 (antibody, V domains shown)
VH: B3 VH with S31T, L79F, S98T
VL: B3 VL with D25N
notes: also called PMX27
Regarding B4, the “GEO mean OX40L expressing HEK” value in assay [5] amounted to 1.65e+06. Besides, in assay [1], the koff is 0.0161 s⁻¹. For the same molecule, in assay [2], the off-rate constant (koff) was 0.000505 s⁻¹. Also, in assay [3], the “% Signal Inhibition Average” value worked out at 80.4%, the “% Signal Inhibition Rep1” value was 72.2%, the “% Signal Inhibition Rep2” value was determined as 83.5% and the “% Signal Inhibition Rep3” value amounted to 85.5%. Further, the Kd in assay [4] turned out to be 316 nM. In assay [6], this molecule returned a GEO mean difference of 1.62e+06.

B5: PMX041 (antibody)
heavy: EVHLVESGGDLVKPEGSLRLSCVVSGFTFTTNDMSWVRQAPGKGLQWVAYITSDGRITTYTDAVKGRFTISRDNAKNTLYLQMNSLRTEDTAVYYCAKHSSNWSRGRFGLDYWGHGTSLFVSSASTTAPSVFPLAPSCGSTSGSTVALACLVSGYFPEPVTVSWNSGSLTSGVHTFPSVLQSSGLYSLSSMVTVPSSRWPSETFTCNVAHPASKTKVDKPVPKRENGRVPRPPDCPKCPAPESLGGPSVFIFPPKPKDTLLIARTPEVTCVVVDLGREDPEVQISWFVDGKQMQTAKTQPREEQFNGTYRVVSVLPIGHQDWLKGKQFTCKVNHIGLPSPIERTISKARGQAHQPSVYVLPPSREELSKNTVSLTCLIKDFFPPDIDVEWQSNGQQEPESKYRTTPPQLDEDGSYFLYSKLSVDKSRWQRGDTFICAVMHEALHNHYTQKSLSHSPGK
VL: SYVLTQLPSKNVTLKQPAHITCGGDNIGSKSVHWYQQKLGQAPVLIIYYDSSRPTGIPERFSGANSGNTATLTISGALAEDEADYYCQVWDNSASVFGGGTHLTVL
notes: also called PMX41
In the case of B5, in assay [5], the “GEO mean OX40L expressing HEK” value amounted to 1.56e+06. Moreover, the koff in assay [1] worked out at 0.0134 s⁻¹. The koff in assay [2] came out at 0.000409 s⁻¹. In addition, in assay [3], the “% Signal Inhibition Average” value was 80.1%, the “% Signal Inhibition Rep1” value was determined as 86.4%, the “% Signal Inhibition Rep2” value stood at 78.2% and the “% Signal Inhibition Rep3” value came to 75.6%. The Kd in assay [4] is 1590 nM. In addition, the GEO mean difference in assay [6] amounted to 1.53e+06.

B6: PMX050 (antibody, V domains shown)
VH: EVQLVESGGDLVKPEGSLRLSCVVSGFTFTTYDMSWVRQAPGKGLQWVAYITNDGRITTYTDAVKGRFTISRDNAKNTLYLQMNSLRTVDTGVYYCARHSSSWSRGRFGLDYWGHGTSVFVSS
VL: B5 VL with S29R, S31G
notes: also called PMX50
For the molecule B6, in assay [5], the “GEO mean OX40L expressing HEK” value amounted to 3.08e+06. Besides, in assay [1], the dissociation rate constant (koff) was 0.000525 s⁻¹. The off-rate (koff) in assay [2] was 0.161 s⁻¹. In assay [3], the “% Signal Inhibition Average” value turned out to be 76.6%, the “% Signal Inhibition Rep1” value came to 68.7%, the “% Signal Inhibition Rep2” value worked out at 83.3% and the “% Signal Inhibition Rep3” value came to 77.6%. For the same molecule, in assay [4], the Kd was 1.31 nM. The molecule also gave a GEO mean difference in assay [6] of 3.06e+06.

B7: PMX039 (antibody)
heavy: B5 heavy with H3Q, T30I, S53N, I57Y, T59S, W103Y, S104Y, L110M
VL: B5 VL with S52T, N92S
notes: also called PMX39
As to B7, the “GEO mean OX40L expressing HEK” value in assay [5] turned out to be 1.52e+06. Also, in assay [1], the off-rate (koff) came to 0.0128 s⁻¹. In assay [2], the koff is 0.00139 s⁻¹. In addition, in assay [3], the “% Signal Inhibition Average” value was found to be 80.6%, the “% Signal Inhibition Rep1” value turned out to be 81.7%, the “% Signal Inhibition Rep2” value stood at 86.6% and the “% Signal Inhibition Rep3” value was found to be 73.6%. Besides, the Kd in assay [4] came out at 46.4 nM. In assay [6], the GEO mean difference was found to be 1.49e+06.

B8: PMX049 (antibody, V domains shown)
VH: EVQLVESGGDLVKPGGSLRLSCVASGFTFNNYEMYWVRQAPGKGLEWVARIYESGSTTFSAEAVTGRFTISRDNAKNMVYLQMNSLRAEDTAVYYCASASSSSWRFDYWGQGTLVTVSS
VL: SYVLTQLPSVSVTLGQTARITCGGDSIGRKNVCWFQQRLGQAPELIIYDDRSRPSGIPERFSGANSGNTATLTISGALAEDEADYYCQVWDSSTGVFGGGTHLTVL
notes: also called PMX49
For B8, the “GEO mean OX40L expressing HEK” value in assay [5] was found to be 3.5e+06. Also, the koff in assay [1] is 0.00211 s⁻¹. Moreover, in assay [2], the koff is 22 s⁻¹. For the same molecule, in assay [3], the “% Signal Inhibition Average” value came to 84.7%, the “% Signal Inhibition Rep1” value stood at 84.6%, the “% Signal Inhibition Rep2” value was 79.3% and the “% Signal Inhibition Rep3” value worked out at 90.1%. The Kd in assay [4] came to 15.6 nM. Besides, in assay [6], the GEO mean difference amounted to 3.48e+06.

B9: PMX037 (antibody, V domains shown)
VH: B8 VH with V5L, N30S, I51F, F59Y, T65P, V79A
VL: B8 VL with R29S, C33Y, R38K, E44V
notes: also called PMX37
As for B9, in assay [5], the “GEO mean OX40L expressing HEK” value was 1.42e+06. The koff in assay [1] amounted to 0.0183 s⁻¹. In addition, the off-rate (koff) in assay [2] amounted to 0.000862 s⁻¹. Further, in assay [3], the “% Signal Inhibition Average” value came out at 78.4%, the “% Signal Inhibition Rep1” value stood at 85.7%, the “% Signal Inhibition Rep2” value amounted to 79.8% and the “% Signal Inhibition Rep3” value was 69.8%. The Kd in assay [4] amounted to 308 nM. The molecule further had a GEO mean difference in assay [6] of 1.39e+06.

B10: PMX048 (antibody, V domains shown)
VH: B8 VH with S56T, F59Y, V64D, Y80F, S103T
VL: B8 VL with C33Y, R38K, E44V
notes: also called PMX48
As for B10, the “GEO mean OX40L expressing HEK” value in assay [5] was found to be 3.92e+06. The koff in assay [1] came to 0.00485 s⁻¹. For the same molecule, the dissociation rate constant (koff) in assay [2] was found to be 21 s⁻¹. Further, in assay [3], the “% Signal Inhibition Average” value is 69.9%, the “% Signal Inhibition Rep1” value was 57.5%, the “% Signal Inhibition Rep2” value was determined as 69.3% and the “% Signal Inhibition Rep3” value came out at 82.9%. Besides, in assay [4], the Kd turned out to be 12.2 nM. This molecule also came in with a GEO mean difference in assay [6] of 3.9e+06.
